Experiment [1] has as its target T1, human IL-4 (recombinant E. coli-expressed) (human, UniProt P05112 25-153).
T1 sequence (looked up): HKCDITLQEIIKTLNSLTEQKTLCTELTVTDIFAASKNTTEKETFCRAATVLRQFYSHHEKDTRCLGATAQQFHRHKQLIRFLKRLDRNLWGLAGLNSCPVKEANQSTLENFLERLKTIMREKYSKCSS
In words: Biacore T100 SPR, Protein A capture (C1 chip), human IL4 analyte, 1:1 fit. How it is done: Protein A was immobilised on a Cl chip by primary amine coupling; this surface was used as a capture surface for the antibody molecules to be tested. […] Regeneration the Protein A surface was with 100 mM Phosphoric acid. The assay was run at 25° C. using HBS-EP as running buffer. The data was fitted to 1:1 model inherent to the Biacore T100 analysis software.
On the technique in general: SPR reads the build-up and loss of mass on a sensor chip optically.

For experiment [2], the target named is T1, human IL-4 (recombinant E. …). The experiment is described as follows: Biacore T100 SPR, Protein A capture (CM5), human IL4 analyte, 1:1 fit. How it is done:
Purified mAbs and mAbdAb constructs were tested in a BIAcore assay to determine whether the mutation of position 89 had any effect on the binding of the dAb to IL-4.
Protein A was immobilised on a CM5 chip by primary amine coupling; this surface was used as a capture surface for the antibody molecules to be tested. […] Regeneration of the […] surface was achieved using 50 mM NaOH. The assay was run at 25° C. using HBS-EP as running buffer. The data was fitted to 1:1 model inherent to the Biacore T100 analysis software.

The target is the same in experiment [3]. The experiment is described as follows: Biacore T100 SPR, Protein A capture (CM5), human IL4 analyte. How it is done: Protein A was immobilised on a CM5 chip by primary amine coupling; this surface was used as a capture surface for the antibody molecules to be tested.
All binding curves were double referenced with a 0 nM injection (i.e. buffer alone). Regeneration of the Protein A surface was with 50 mM NaOH. The assay was run at 25° C. using HBS-EP as running buffer. The data was fitted to 1:1 model inherent to the Biacore T100 analysis software.

Experiment [4] addresses T2, human IL-13 (recombinant E. coli-expressed) (human, UniProt P35225 35-146).
T2 construct: also called hIL-13
In words: Biacore T100 SPR, mAb captured on anti-human IgG, IL13 analyte. How it is done:
(§1) Table 1 details the overall affinities (equilibrium dissociation constant KD) for the selected constructs from the ProteOn screen and the T100 run
(§2) In light of this, mutations at this residue that were not present in the initial screen were tested using the ProteOn using the same method as described earlier and again using antibodies direct from tissue culture supernatants.

The target of experiment [5] is T2, human IL-13 (recombinant E. …). The experiment is described as follows: ProteOn XPR36 SPR, purified mAb captured on anti-human IgG, IL13 analyte, 1:1 fit; range over several runs. How it is done:
(§3) The initial screen of CDRH3 mutants was carried out on the ProteOn XPR36 (Biorad). […] 3M MgCl₂ was used to regenerate the capture surface, removing the bound CDRH3 mutant antibodies ready for another cycle of capture and analyte injection. The data was fitted to the 1:1 model using the software inherent to the machine.

The target is the same in experiment [6]. The experiment is described as follows: Biacore T100 SPR, purified mAb captured on anti-human IgG, IL13 analyte, 1:1 fit.
Source text: as §1

The target is the same in experiment [7]. The experiment is described as follows: ProteOn XPR36 SPR, mAb captured on anti-human IgG, IL13 analyte. How it is done: as §3
For experiment [8] the target is unchanged. In words: Biacore T100 SPR, mAb captured on anti-human IgG, IL13 analyte, 1:1 fit.
Source text: as §1

For experiment [9] the target is unchanged. The experiment is described as follows: Biacore T100 SPR, purified mAb captured on anti-human IgG, IL13 analyte, 1:1 fit.
Source text: as §1
The source holds these as a separate data set.

For experiment [10] the target is unchanged. In words: cell-based or functional assay.
The target is the same in experiment [11]. The experiment is described as follows: cell-based or functional assay. The source holds these as a separate data set.
Experiment [12] has the same target. The experiment is described as follows: Biacore T100 SPR, mAb (supernatant) captured on anti-human IgG, IL13 analyte, 1:1 fit.
Source text: as §1

Experiment [13] has the same target. In words: ProteOn XPR36 SPR, mAb (supernatant) captured on anti-human IgG, IL13 analyte. How it is done: as §3, §2
In experiment [14] the target is T1, human IL-4 (recombinant E. …). The experiment is described as follows: direct binding ELISA, plate coated with 5 µg/ml human IL-4, anti-human kappa light chain-HRP detection, absorbance at 490 nm. How it is done:
An ELISA was performed as described in example 4, coating 96-well high binding plates with 50 μl/well of recombinant E. coli-expressed human IL-4 at 5 μg/ml and incubated at +4° C. overnight.
(An ELISA detects its analyte on a solid surface through an enzyme-linked reagent.)

T2 sequence (P35225 other isoform, or with tags, fused parts or gaps limits assumed): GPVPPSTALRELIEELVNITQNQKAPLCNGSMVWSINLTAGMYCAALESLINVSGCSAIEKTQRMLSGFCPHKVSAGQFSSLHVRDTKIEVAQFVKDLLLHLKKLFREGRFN

B1: BPC2223 (bispecific antibody, human IgG1, kappa)
heavy: not shown
light: DIVMTQSPLSLPVTPGEPASISCRSSQNIVHINGNTYLEWYLQKPGQSPRLLIYKISDRFSGVPDRFSGSGSGTDFTLKISRVEADDVGIYYCFQGSHVPWTFGQGTKLEIKRTVAAPSVFIFPPSDEQLKSGTASVVCLLNNFYPREAKVQWKVDNALQSGNSQESVTEQDSKDSTYSLSSTLTLSKADYEKHKVYACEVTHQGLSSPVTKSFNRGEC
notes: mAbdAb with the original CDRH3 and the unmutated DOM9-155-154 dAb
By Kd is commonly meant a measure of binding affinity in units of concentration. With B1, the Kd in experiment [1] amounted to 0.018 nM; in experiment [2], 0.01 nM.

B2: BPC1119 (bispecific antibody, human IgG1, kappa)
heavy: not shown
light: DIVMTQSPLSLPVTPGEPASISCRSSQNIVHINGNTYLEWYLQKPGQSPRLLIYKISDRFSGVPDRFSGSGSGTDFTLKISRVEADDVGIYYCFQGSHVPWTFGQGTKLEIKRTVAAPSVFIFPPSDEQLKSGTASVVCLLNNFYPREAKVQWKVDNALQSGNSQESVTEQDSKDSTYSLSSTLTLSKADYEKHKVYACEVTHQGLSSPVTKSFNRGEC
notes: mAbdAb; dAb Kabat 89 P; also called 829H-(TVAAPS)2GS-154 (89P)
For B2, in experiment [3], the binding result is reported as “no binding (tested: IL4 up to 64 nM)”.

B3: BPC1113 (bispecific antibody, human IgG1, kappa)
heavy: not shown
light: DIVMTQSPLSLPVTPGEPASISCRSSQNIVHINGNTYLEWYLQKPGQSPRLLIYKISDRFSGVPDRFSGSGSGTDFTLKISRVEADDVGIYYCFQGSHVPWTFGQGTKLEIKRTVAAPSVFIFPPSDEQLKSGTASVVCLLNNFYPREAKVQWKVDNALQSGNSQESVTEQDSKDSTYSLSSTLTLSKADYEKHKVYACEVTHQGLSSPVTKSFNRGEC
notes: mAbdAb; dAb Kabat 89 D; also called 829H-(TVAAPS)2GS-154 (89D)
Turning to B3, the binding result in [3] is reported as “no binding (tested: IL4 up to 64 nM)”.

B4: A1L1 (antibody, human IgG1, kappa, V domains shown)
VH: QVQLVQSGAEVKKPGSSVKVSCKASGFYIKDTYMHWVRQAPGQGLEWMGTIDPANGNTKYVPKFQGRVTITADESTSTAYMELSSLRSEDTAVYYCARSIYDDYHYDDYYAMDYWGQGTLVTVSS
VL: DIVMTQSPLSLPVTPGEPASISCRSSQNIVHINGNTYLEWYLQKPGQSPRLLIYKISDRFSGVPDRFSGSGSGTDFTLKISRVEADDVGIYYCFQGSHVPWTFGQGTKLEIKR
notes: Humanised version of murine 6A1, human IgG1 kappa; also called parental; 586 (mAb)
Usually koff stands for the rate constant with which the complex falls apart. What is called kon is the rate constant with which the complex forms. Regarding B4, the Kd in experiment [4] is 0.346 nM; in [5], 0.45 to 0.6 nM; in experiment [6] it was 0.366 nM; in experiment [7], 0.39 to 0.46 nM; in experiment [8], 0.36 nM; in experiment [9], 0.326 nM. The off-rate constant (koff) stood at 0.000456 s⁻¹ in experiment [8] and 0.000368 s⁻¹ in experiment [9]. The kon in [8] was determined as 1.27e+06 M⁻¹ s⁻¹; in [9], 1.13e+06 M⁻¹ s⁻¹. Also, the “ND50 (nM), TF-1 cell proliferation bioassay” value in experiment [10] was determined as 9.77 nM. For the same molecule, the “Mean ND50 value (nM), TF-1 cell proliferation bioassay” value in experiment [11] is 5.01 nM.

B5: A1Y100B ValL1 (antibody, human IgG1, kappa, V domains shown)
VH: QVQLVQSGAEVKKPGSSVKVSCKASGFYIKDTYMHWVRQAPGQGLEWMGTIDPANGNTKYVPKFQGRVTITADESTSTAYMELSSLRSEDTAVYYCARSIYDDYHVDDYYAMDYWGQGTLVTVSS
VL: DIVMTQSPLSLPVTPGEPASISCRSSQNIVHINGNTYLEWYLQKPGQSPRLLIYKISDRFSGVPDRFSGSGSGTDFTLKISRVEADDVGIYYCFQGSHVPWTFGQGTKLEIKR
notes: CDRH3 variant of A1L1; also called A1Y100BVAL1; 829 (mAb)
Turning to B5, the Kd in experiment [4] is 0.025 nM; in experiment [12], 0.034 nM; in [13], 0.166 nM; in [9] it was 0.027 nM. Moreover, the koff in experiment [12] worked out at 3.45e-05 s⁻¹; in experiment [9], 2.12e-05 s⁻¹. Besides, the values for the kon in [12] and in [9] were 1.02e+06 M⁻¹ s⁻¹ and 776000 M⁻¹ s⁻¹, respectively. Also, the binding result in experiment [14] is “no binding (tested: 10 µg/ml)”.

The values are drawn from US20120082682A1 (GlaxoSmithKline, published 2012).
